# From patent publication US20230374114A1 (published 2023)
# Residue numbers refer to the chain shown, from its start.
# B1: Ab 27 scFv-Fc (scFv, V domains shown)
# VH: QVQLVQSGTEVKKPGASVKVSCKASGYSFTGSHLHWVRQAPGQGLEWMGWINPDSGVINYAQKFQGRVTLTRDTSISTAYMELSGLRSDDTAVYYCARDKAIGYVWALDYWGQGTLVTVSS
# VL: QSALTQPPSVSGSPGQSVTISCTGTSSDVGTYNRVSWYQQPPGKAPKLMIYEVSNRPSGVSNRFSGSKSGNTASLTISGLQAEDEADYYCSSYTRTFTYVFGTGTKVTVL
# B2: Ab 19 scFv-Fc (scFv, V domains shown)
# VH: EVQLVESGAEVKKPGESLKISCKGSGYSFTSYWIGWVRQMPGKGLEWMGIIYPGDSDTRYSPSFQGQVTISADKSISTAYLQWSSLKASDTAMYYCARRGDLDAFDIWGQGTMVTVSS
# VL: QPGLTQPPAASGTPGQRVTVSCSGASANIGSNAVSWFKQFPETAPRLLISGNTHRPSGVPDRVSGSKSGTSASLTISGLQSDDEADYYCAAWDDSLNGYVFGSGTKVTVL
# B3: Ab_16 (scFv, V domains shown)
# VH: QVQLVQSGGGVVQPGRSLRLSCAASGFTFSNYGMHWVRQAPGKGLEWVALIWERGSKKDYADSVKGRFTVSRDNSKNTLYLQMNSLRPEDTAVYFCAREGISMTGAEYFQHWGQGTLVTVSS
# VL: QSVLTQPPSVSGSPGQRVTMSCTGSSSNIGAGYDVHWYQQVPGAAPRLLIYGTNNRPSGVPDRFSGSKSGTSASLTITGLQAEDEADYYCQSYDNSLTDPYVFGTGTKVTVL
# B4: Ab 15 scFv-Fc (scFv, V domains shown)
# VH: QVQLVQSGGGLVKPGRSLRLSCTASGFTFGDYAMSWFRQAPGKGLEWVGFIRSKAYGGTTGYAASVKGRFTISRDDSKSIAYLQMNSLKTEDTAVYYCTTADDDMDVWGKGTTVTVSS
# VL: NFMLTQPHSVSESPGKTVTISCTRSSGTIASNYVQWYQQRPGSAPTTVIYEDNQRPSGVPDRFSGSIDRSSNSASLTISGLTPDDEADYYCQSYDTSNHYVFGTGTKVTVL
# B5: Ab_13 (scFv, V domains shown)
# VH: QVTLKESGPKLVKPTQTLTLTCTFSGFSLSTSGVGVGWIRQPPGKALEWLALIYWDDDKRYSPSLKSRLTIAKDTSKYQVVLTMTNMDPVDTATYYCARISGSGYFYPFDIWGQGTMVTVSA
# VL: B4 VL with T28S, R69S, T82K, P83T, D84E, T96S, H99L, Y100W, T104G, V108L
# B6: Ab 14 scFv-Fc (scFv, V domains shown)
# VH: QVQLQQSGPGLVKPSQTLSLTCAISGDSVSSNSAAWNWIRQSPARGLEWLGRTYYRSRWYNDYAISMKSRITINPDTSKNQFSLQLESVTPEDTAVYYCAREIRGFDYWGQGTLVTVSS
# VL: QSVLTQPPSASGSPGQSVTISCTGTSSDVGAYNFVSWYQHHPGKAPKLIIYDFNKRPSGVPDRFSGSKSGNTASLTVSGLQADDEADYYCSSYAGSNNFDVVFGGGTKLTVL
# B7: Ab 25 scFv-Fc (scFv, V domains shown)
# VH: QVQLVQSGGGLVQPGGSLRLSCAASGFTFSSYWMSWVRQAPGKGLEWVANIKQDGSEKYYVDSVKGRFTISRDNAKNSLYLQMNSLRAEDTAVYYCARGFYYYGAFDIWGQGTTVTVSS
# VL: NFMLTQPHSVSESPGKTVTISCTGSSGSIASNYVQWYQQRPGSAPTTVIYEDNQRPSGVPDRFSGSIGSSSNSASLTISGLKTEDEADYYCQSYDSSNHWVFGGGTKLTVL
# B8: Ab 20 (scFv, V domains shown)
# VH: QVQLVQSGGGSVKPGGSLRLSCAASGYRLSDYYMHWVRQAPGKGLEWVANIKQDGSEKYYVDSVKGRFTISRDNAKNSLYLQMNSLRAEDTAVYYCARVRGWSRGYFDYWGQGTLVTVSS
# VL: B7 VL with G68D, T77L
# B9: Ab_18 (scFv, V domains shown)
# VH: EVQLVQSGGGVVQPGRSLRVSCAASGFSFSRYGMHWVRQAPGKGLEWVAFIRHDGSKKYYADSVEGRFTISRDNSRNTVSLEMNSLRGEDTAVYYCAKDGRLEAALDDWGQGTLVTVSS
# VL: NFMLTQPHSMSGSAGKTVTVSCIRSSGSIANNFVQWYQQRPGSAPTTVIYEDNQRPSGVPDRFSGSIDSSSNSASLTISGLKTEDEADYYCQSYDSSNLVFGGGTRLTVL
# B10: Ab 21 (scFv, V domains shown)
# VH: QVQLVQSGGGLVQPGGSLRLSCATSGFTFDDYAMHWVRQAPGKGLEWVSGISWNSGSIGYVDSVKGRFTISRDNRNNKVYLQMNNLRAEDTAVYYCARDWWGSIDHWGLGTLVTVSS
# VL: QSALTQPRSVSGSPGQSVTISCTGTSSDVGGYDYVSWYQQHPGKAPKLIIYDVSKRPSGVPDRFSGSKSGNTASLTVSGLQAEDEADYYCSSYTSSSPVVFGGGTKLTVL
# B11: Ab 26 scFv-Fc (scFv, V domains shown)
# VH: QVQLVQSGGGLVQPGRSLRLSCAASGFTFDDYAMHWVRQVPGKGLEWVSGIDWNSGVIGYADSVKGRFTISRDNAKNSLYLQMNSLRAEDTALYYCAKDAYSYGFLGAFDIWGQGTMVTVSS
# VL: LPVLTQPPSVSVAPGQTASITCGGDNIRTKGVHWYQQKPGQAPLLVIYYASDRPSGIPERFSGSSSGNTATLTISRVEAGDEADYYCQVWDSSSDLVVFGGGTTLTVL
# B12: S1-RBD-R3-T1-D7 Ab (Ab_34) (scFv, V domains shown)
# VH: QVQLVQSGVEVKKPGESLKISCKGSGYSFTSYWIGWVRQMPGKGLEWMGIIYPGDSDTRYSPSFQGQVTISADKSISTAYLQWSSLKASDTAMYYCARTTYSYGSFDYWGQGTLVTVSS
# VL: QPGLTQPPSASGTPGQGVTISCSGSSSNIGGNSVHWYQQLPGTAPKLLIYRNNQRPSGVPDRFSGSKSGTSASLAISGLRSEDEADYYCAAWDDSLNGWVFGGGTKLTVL
# B13: RBD-R3-E1-B3 Ab (Ab_32) (scFv, V domains shown)
# VH: QVQLVQSGAEVKKPGESLKISCKGSGYSFTSYWIGWVRQMPGKGLEWMGIIYPGDSDTRYSPSFQGQVTISADKSISTAYLQWSSLKASDTAMYYCARGWQWHDYWGQGTLVTVSS
# VL: QTVVTQEPAVSVALGQTVRITCQGDSLRSYYASWYQQKPGQAPVLVVYDKDKRPSGIPDRFSGSTSGNTASLTITGAQAEDEADYYCNSRDRSDNHVVFGGGTKLTVL
# B14: Ab 30 scFv-Fc (RBD-R3-E1-A5) (scFv, V domains shown)
# VH: QVQLVQSGGGVVQPGKSLRLSCTASGFTFSDFPIHWVRQAPGKGLEWVGVISYDGNIKYYGDSVKGRFTISRDNAKNSLYLQMNSLRVEDTAVYYCARGGSSFDIWGQGTTVTVSS
# VL: SYELTQPPSVSEAPRQRVTISCSGSTSNIGNNAVSWYQHLPGKAPKLLIYYNERLPSGVSDRFSGSKSGTSASLAISGLRSEDEADYYCAAWDDSLSGHVVFGGGTKLTVL
# B15: S1-RBD-R3-E1-E8 Ab (Ab 37) (scFv, V domains shown)
# VH: QVQLVQSGAEVKKPGASVKVSCKASGYTFTSYGISWVRQAPGQGLEWMGWISTYNGNTNYAQKLQGRVTMTTDTSTSTAYMEVRSLRSDDTAVYYCARDVFGHFDYWGQGTLVTVSS
# VL: NFMLTQPHSVSESPGKTVLISCTRSSGNIATNYVQWYQQRPGSAPTTVIYEDNQRPSGVPDRFSGSIDSSSNSASLTISGLKTEDEADYYCKSYDDGNHVFGGGTKLTVL
# B16: S1-RBD-R3-T1-B12 Ab (Ab_31) (scFv, V domains shown)
# VH: QVQLVQSGAEVKKPGSSVKVSCKASGGTFSSYTISWVRQAPGQGLEWMGGIIPILGTPNYAQKFQDRVAITADKSTSTAYMELSSLRSEDTAVYYCAVGSGWYSGFDYWGQGTLVTVSS
# VL: B7 VL with N53S, G68D, Y94F, D95H, S96N, H99P, W100V, V101I
# B17: RBD-R3-T1-H3 (Ab_2) (scFv, V domains shown)
# VH: EVQLVQSGAEVKKPGSSVKVSCKTSGYTFTTSGISWVRQAPGQGLEWMGWISAYNGNTNYAQKLQGRVTMTTDTSTSTAYMELRSLRSDDTAVYYCARDFHLYYGMDVWGKGTLVTVSS
# VL: QSALTQPPSASGSPGQSVTISCTGTSSDVGAYNYVSWYQQHPGKAPKLLIYDVTKRPPGVPDRFSGSKSGNTASLTVSGLQAEDEADYYCAVWDDGLNGRVVFGGGTKLTVL
# B18: RBD-R3-E1-F5 Ab (Ab_36) (scFv, V domains shown)
# VH: QVQLQQSGPGLVKPSQTLSLTCAIFGDSVTSNSAAWNWIRQSPSRGLEWLGRTYYSSKWYNDYAVSVKSRVTINADTSKNQLSLQLNSVTPEDTAVYYCARGWLRLSFDPWGQGTLVTVSS
# VL: NFMLTQPHSVSESPGKTVTISCTGSSGSIASNYVQWLQQRLGSAPTTVIYEDNQRPSGVPDRFSGSIDSSSNSASLTISGLKTEDEADYYCQSYDPNNHGVVFGGGTKLTVL
# B19: S1-R3-T1-C4 (Ab_8) (scFv, V domains shown)
# VH: QVQLVQSGAEVKKPGSSVKVSCKASGGTFSSYAISWLRQAPGQGLEWMGWINPNSGGTNYAQKFQGRVTMTRDTSISTAYMELSRLRSDDTAVYYCARGSGGYYLGWGQGTLVTVSS
# VL: QPGLTQPPSVSKGLRQTATLTCTGNSNNVGNQGAAWLQQHQGHPPKLLSYMNNNRPPGISERFSASRSGNTASLTITGLQPEDEADYYCSAWDSSLSRWVFGGGTKLSVL
# B20: Ab 38 (scFv, V domains shown)
# VH: QVTLKESGPTLVKPTQTLTLTCTFSGFSLTTSGVSVGWIRQPPGKALEWLALIHWDDDKRYSPSLRSRLTITRDTSKNQVVLTVTDMDPADTGTYYCASFIMTVYAEYFEDWGQGTLVTVSS
# VL: EIVLTQSPATLSVSPGERATLSCRASQSVSSNLAWYQQKPGQAPRLLMYDVSTRATGIPARFSGSGSGTEFSLTISSLQSEDFAVYYCQQRGAWPLTFGGGTKVEIK
# B21: S1-RBD-R3-T1-C7 Ab (Ab 29) (scFv, V domains shown)
# VH: QVQLQQSGPGLVKPSQTLSLTCAISGDSVSSYSDAWNWIRQSPSRGLEWLGRTYYRSKWYNDYAVSVKSRITINPDTSKNQFSLQLSSVTPEDTAVYYCAREIVATTPFRNYYYGMDVWGQGTTVTVSS
# VL: NFMLTQPHSVSESPGNTVTISCTRTSGSIASNYVQWYQQRPGSSPTTVIFQDKLRPSGVPDRFSGSIDSSSNSASLTISGLKTEDEADYYCQSYDSSSLWVFGGGTKLTVL
# Biological target: T1, Biotinylated SARS-CoV-2 S1 protein (ACRO, S1N-C82E8) (UniProt P0DTC2 16-685)
# Test: BLI
row,Binder,Kd
1,B1,< 0.001 nM
2,B2,0.13 nM
3,B3,2.18 nM
4,B4,0.033 nM
5,B5,1.14 nM
6,B6,0.594 nM
7,B7,10.1 nM
8,B8,5.01 nM
9,B9,0.121 nM
10,B10,1.28 nM
11,B11,0.0875 nM

# Biological target: T1, Biotinylated SARS-CoV-2 S1 protein …
# Test: BLI
# Remark: another data set of the same source
row,Binder,Kd
1,B12,0.184 nM
2,B1,< 0.001 nM
3,B2,0.13 nM
4,B13,0.168 nM
5,B3,2.18 nM
6,B4,0.033 nM
7,B5,1.14 nM
8,B14,0.314 nM
9,B15,0.907 nM
10,B6,0.594 nM
11,B7,10.1 nM
12,B8,5.01 nM
13,B16,2040 nM
14,B17,< 0.001 nM
15,B9,0.121 nM
16,B18,0.0306 nM
17,B10,1.28 nM
18,B19,325 nM
19,B20,0.22 nM
20,B11,0.0875 nM
21,B21,< 0.001 nM
